In doi:10.1101/2023.03.16.532763 (bioRxiv, 2023):

Molecular target: purified full-length Polθ (UniProt O75417 1-2590)
Assay: co-IP

purified full-length Polθ, sequence (O75417 whole entry): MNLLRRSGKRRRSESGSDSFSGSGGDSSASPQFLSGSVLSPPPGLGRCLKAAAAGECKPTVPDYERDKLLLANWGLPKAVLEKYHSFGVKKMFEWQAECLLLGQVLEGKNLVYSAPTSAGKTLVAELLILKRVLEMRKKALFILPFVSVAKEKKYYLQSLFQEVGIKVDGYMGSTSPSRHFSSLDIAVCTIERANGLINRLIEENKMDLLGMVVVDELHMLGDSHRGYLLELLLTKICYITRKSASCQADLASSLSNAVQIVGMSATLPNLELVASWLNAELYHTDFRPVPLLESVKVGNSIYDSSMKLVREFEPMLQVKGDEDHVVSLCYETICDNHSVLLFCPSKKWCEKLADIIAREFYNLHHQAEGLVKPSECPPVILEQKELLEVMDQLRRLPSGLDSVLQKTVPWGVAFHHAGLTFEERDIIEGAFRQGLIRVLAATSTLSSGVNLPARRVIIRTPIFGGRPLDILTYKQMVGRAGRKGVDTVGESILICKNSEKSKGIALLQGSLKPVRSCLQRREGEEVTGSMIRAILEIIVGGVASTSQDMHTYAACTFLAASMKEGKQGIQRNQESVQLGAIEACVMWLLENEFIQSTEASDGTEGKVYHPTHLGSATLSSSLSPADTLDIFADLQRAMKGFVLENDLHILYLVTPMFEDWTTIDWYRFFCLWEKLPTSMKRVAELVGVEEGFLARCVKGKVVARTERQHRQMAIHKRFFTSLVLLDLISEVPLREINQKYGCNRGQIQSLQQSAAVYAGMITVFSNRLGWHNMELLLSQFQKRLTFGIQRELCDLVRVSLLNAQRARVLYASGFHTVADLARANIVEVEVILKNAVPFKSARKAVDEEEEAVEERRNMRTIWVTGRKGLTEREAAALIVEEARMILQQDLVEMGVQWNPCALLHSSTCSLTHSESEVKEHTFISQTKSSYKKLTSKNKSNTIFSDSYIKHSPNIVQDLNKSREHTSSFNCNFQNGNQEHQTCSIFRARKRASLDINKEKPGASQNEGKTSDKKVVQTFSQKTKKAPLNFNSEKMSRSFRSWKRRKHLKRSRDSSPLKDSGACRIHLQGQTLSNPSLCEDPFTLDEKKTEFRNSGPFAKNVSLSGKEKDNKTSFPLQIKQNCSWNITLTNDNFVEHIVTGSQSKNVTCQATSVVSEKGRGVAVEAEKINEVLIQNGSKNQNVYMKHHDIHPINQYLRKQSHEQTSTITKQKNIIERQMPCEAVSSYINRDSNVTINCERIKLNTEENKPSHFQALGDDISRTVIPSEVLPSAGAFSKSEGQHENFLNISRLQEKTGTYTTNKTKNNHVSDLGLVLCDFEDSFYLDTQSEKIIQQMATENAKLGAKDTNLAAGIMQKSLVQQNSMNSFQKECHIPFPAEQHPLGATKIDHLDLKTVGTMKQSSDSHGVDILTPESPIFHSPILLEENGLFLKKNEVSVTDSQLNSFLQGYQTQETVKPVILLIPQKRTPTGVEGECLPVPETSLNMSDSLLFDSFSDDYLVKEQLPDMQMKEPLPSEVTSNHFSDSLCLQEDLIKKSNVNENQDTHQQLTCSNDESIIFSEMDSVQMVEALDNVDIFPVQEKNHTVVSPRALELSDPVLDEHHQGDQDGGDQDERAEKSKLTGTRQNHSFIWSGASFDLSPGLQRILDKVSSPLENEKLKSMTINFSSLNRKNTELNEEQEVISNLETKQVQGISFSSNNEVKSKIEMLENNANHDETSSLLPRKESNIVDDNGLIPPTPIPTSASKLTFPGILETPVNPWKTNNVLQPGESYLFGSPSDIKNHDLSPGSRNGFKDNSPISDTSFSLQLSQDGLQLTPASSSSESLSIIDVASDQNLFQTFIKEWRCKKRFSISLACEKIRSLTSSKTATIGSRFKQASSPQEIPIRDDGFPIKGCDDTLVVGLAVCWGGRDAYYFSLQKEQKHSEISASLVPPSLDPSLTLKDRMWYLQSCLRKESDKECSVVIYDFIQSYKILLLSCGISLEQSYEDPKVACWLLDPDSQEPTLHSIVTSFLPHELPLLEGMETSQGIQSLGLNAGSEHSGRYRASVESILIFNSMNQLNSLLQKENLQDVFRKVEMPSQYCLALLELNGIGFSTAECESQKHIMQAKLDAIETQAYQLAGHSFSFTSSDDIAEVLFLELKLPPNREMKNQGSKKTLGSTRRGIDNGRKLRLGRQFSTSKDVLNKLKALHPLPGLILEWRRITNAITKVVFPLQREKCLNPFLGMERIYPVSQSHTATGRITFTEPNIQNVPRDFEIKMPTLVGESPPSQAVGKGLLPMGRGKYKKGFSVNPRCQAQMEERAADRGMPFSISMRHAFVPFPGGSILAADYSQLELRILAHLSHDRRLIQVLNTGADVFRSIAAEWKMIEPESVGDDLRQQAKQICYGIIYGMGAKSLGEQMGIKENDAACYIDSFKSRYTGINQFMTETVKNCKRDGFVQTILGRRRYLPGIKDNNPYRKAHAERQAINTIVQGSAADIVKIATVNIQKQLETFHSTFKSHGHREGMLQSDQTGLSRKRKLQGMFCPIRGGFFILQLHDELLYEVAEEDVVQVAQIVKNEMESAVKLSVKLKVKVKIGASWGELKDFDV

B1: purified recombinant human RHINO protein (natural protein, UniProt Q9BSD3 1-238, looked up)
chain: MPPRKKRRQPSQKAPLLFHQQPLEGPKHSCASTQLPITHTRQVPSKPIDHSTITSWVSPDFDTAAGSLFPAYQKHQNRARHSSRKPTTSKFPHLTFESPQSSSSETLGIPLIRECPSESEKDVSRRPLVPVLSPQSCGNMSVQALQSLPYVFIPPDIQTPESSSVKEELIPQDQKENSLLSCTLHTGTPNSPEPGPVLVKDTPEDKYGIKVTWRRRQHLLAYLRERGKLSRSQFLVKS
B1: binds.
